# From US7265263B1, “Potato transcription factors, methods of use thereof, and a method for enhancing tuber development” (Iowa State University Research Foundation, Inc., priority 2002, dated 2007)
# B1: pBHD9 construct cloned into the pGAD vector (other, not shown: large carriers)
# chain: MDDEMYGFHSTRDDYADKALMSPENLMMQTEYNNFHNYTNSSILTSNPMMFGSDDIQLSSEQTNSFSTMTLQNNDNIYQIRSGNCGGGSGSGGSSKDHNDNNNNNEDYDEDGSN
# notes: also called pBDH9 construct in pGAD
# B2: pAD5-2 (StBEL-05 deletion construct in pGAD) (other, not shown: small tags and cut ends)
# chain: EEVEQRYRQYHHQMQIIVLSFEQVAGIGSAKSYTQLALHAISKQFRCLKDAIAEQVKATSKSLGEEEGLGGKIEGSRLKFVDHHLRQQRALQQIGMMQPNAWRPQRGLPERAVSVLRAWLFEHFLHPYPKDSDKIMLAKQTGLTRSQVSNWFINARVRLWKPMVEEMYLEEVKNQEQNSTNTSGDNKNKETNISAPNEEKHPIITSSLLQDGITTTQAEISTSTISTSPTAGASLHHAHNFSFLGSFNMDNTTTTVDHIENNAKKQRNDMHKFSPSSILSSVDMEAKARESSNKGFTNPLMAAYAMGDFGRFDPHDQQMTANFHGNNGVSLTLGLPPSENLAMPVSQQNYLSNDLGSRSEMGSHYNRMGYENIDFQSGNKRFPTQLLPDFVTGNLGT
# notes: Residues converted from pAD-05 numbering
# B3: pBHD-9: POTH1 deletion construct, first amino-terminal 114 aa, no KNOX domain sequence (protein)
# chain: B1 chain
# How the values were obtained:
# [1] = target: T1, StBEL-05 in pBridge (fusion with the GAL4 DNA-binding domain) (Solanum tuberosum); experiment: yeast two-hybrid, swapped vectors
# T1 construct: Swapped two-hybrid orientation; also called prey cDNA cloned into pBridge
# [2] = target: T2, POTH1 in pBridge (full-length POTH1 fused with the GAL4 DNA-binding domain) (Solanum tuberosum); experiment: yeast two-hybrid deletion analysis
# T2 construct: Bait of the yeast two-hybrid screen and partner of the StBEL-05 deletion constructs; also called pBHD; pBridge:POTH1
# Excerpt: The Matchmaker two-hybrid system (Clontech, Calif.) was used for the yeast two-hybrid screen. Yeast transformation and plasmid rescue into DH5-α *E. coli* cells were according to the manufacturer's instructions. Full-length POTH1 was cloned into the pBridge (Clontech, Calif.) vector and used as bait to screen the potato (*S. tuberosum* 'Desireé') stolon cDNA library in pAD-GAL4-2.1 (Stratagene, Calif.). Positive interactions were confirmed by cotransforming yeast strain AH109 with each purified pAD plasmid and pBridge: POTH1 and plating on -leucine/-tryptophan (transformation control) and -leucine/-tryptophan/-histidine/-adenine (selection) nutrient medium. Induction of the AH109 reporter gene, lacZ, was measured with a yeast β-galactosidase assay kit (Pierce Chemicals). β-galactosidase activity (FIG. 9B) was determined from a known density of yeast cells and calculated as 1000 ×OD420/time of color reaction (minutes)×volume of yeast culture (ml)×$OD600$.
# The StBEL-05 deletion constructs were amplified by PCR, then cloned into the vector, pGAD, in-frame with the GAL4 activation domain. POTH1 deletion constructs were amplified by PCR, and cloned into pBridge (Clontech) in-frame with the GAL4 binding domain. Sequencing of selected cDNAs and constructs was performed at the Iowa State University DNA Facility. […]
# StBEL-05 [3] = experiment: In vitro binding assay of POTH1 deletion constructs with StBEL-05; parameters: species or system Solanum tuberosum; conditions: in vitro binding protocol
# Protocol: In vitro binding experiments were performed as described by Ni et al., “PIF3, a Phytochrome-Interacting Factor Necessary for Normal Photoinduced Signal Transduction, is a Novel Basic Helix-Loop-Helix Protein,” Cell 95:657-667 (1998), which is hereby incorporated by reference in its entirety. The full-length sequence for POTH1 was cloned into a pET17b/GAD fusion cassette and transcribed under the control of the T7 promoter. […] Each 50 μl TnT reaction contained 2.0 μg of template plasmid DNA and 20 μmol (20 μCi) of labeled ^35S-methionine. The POTH1:GAD/BEL complex was immunoprecipitated with anti-GAD antibodies (Santa Cruz Biotechnology, Calif.). The proteins from the pellet (one-half the fraction) and for the prey (one-fourth of the reaction volume) were resolved on a 10% SDS-PAGE gel and visualized by autoradiography. […] Control experiments identified the first 114 aa of the N-terminus (pBHD9) as a transcriptional activator. […] Co-transformation of pBHD9 with an empty pGAD cassette produced transformants capable of growth on -histidine, -tryptophan, -adenine, and -leucine medium and induction of lacZ. None of the other constructs containing this domain were capable of growing on selection media without StBEL-05.
# StBEL-05 [4] = experiment: Yeast two-hybrid interaction of POTH1 deletion constructs with StBEL-05; type: binding, Solanum tuberosum; conditions: yeast AH109
# Protocol: The StBEL-05 deletion constructs were amplified by PCR, then cloned into the vector, pGAD, in-frame with the GAL4 activation domain. POTH1 deletion constructs were amplified by PCR, and cloned into pBridge (Clontech) in-frame with the GAL4 binding domain. Sequencing of selected cDNAs and constructs was performed at the Iowa State University DNA Facility. For deletion analysis, modified constructs of POTH1 were cloned into the pBridge vector for fusion with the DNA-binding domain of GAL4 (FIG. 10A). For StBEL-05, constructs were cloned into the pGAD vector for fusion with the activating domain of GAL4 (FIG. 10B). Deletion constructs were made from both the amino and carboxy termini. These mutants were then tested for interaction in the yeast two-hybrid system by cotransforming into yeast strain AH109 with the corresponding full-length partner (StBEL-05 in pGAL4 or POTH1 in pBridge). All constructs were sequenced to verify that they were in-frame. Positive interactions were verified for lacZ induction by using a β-galactosidase assay (Pierce Chemical Company). For POTH1, seven deletion constructs were tested (FIG. 10A). For the BEL TFs, a fusion construct of StBEL-05 (653 aa of StBEL-05 sequence) and nine deletion constructs were tested (FIG. 10B).
molecule,measurement,setting,value
B1,binding result,[1],no binding
B2,binding result,[2],no binding
B3,pull-down of StBEL-05,StBEL-05 [3],unable to pull-down StBEL-05
same,interaction with StBEL-05,StBEL-05 [4],Interaction with StBEL-05 was observed
